Results taken from PMC2757928.

Key:
[1] = target: IRF5 (222-467) S457D (human); assay: ITC
[2] = target: IRF5 (222-467) S421D (human); assay: ITC
[3] = target: IRF5 (222-467) S425D (human); assay: ITC
[4] = target: IRF5 (222-467) S430D (human); assay: ITC
[5] = target: IRF5 (residues 222-467) (human); assay: ITC
[6] = target: IRF5 (222-467) S427D (human); assay: ITC
[7] = target: IRF5 (222-467) S436D (human); assay: ITC
[8] = target: IRF5 (222-467) S430D (human); assay: AUC

For “CBP (residues 2067-2112) (from UniProt Q92793 2067-2112) (domain or fragment)”, the Kd [1] was 2.41 µM, the dH [1] was -10.3 kcal/mol and the stoichiometry N [1] was 1.08. The Kd [2] was 2.28 µM, the dH [2] was -6.4 kcal/mol and the stoichiometry N [2] was 1.03. It also gave a Kd [3] of 0.71 µM, a dH [3] of -13.3 kcal/mol and a stoichiometry N [3] of 1.04. It also gave a Kd [4] of 0.56 µM, a dH [4] of -15.2 kcal/mol and a stoichiometry N [4] of 1.02. It also gave a Kd [5] of 1.64 µM, a dH [5] of -14.4 kcal/mol and a stoichiometry N [5] of 1.05. For the same substance, the Kd [6] was 0.96 µM, the dH [6] was -12.9 kcal/mol and the stoichiometry N [6] was 0.98. For the same substance, the Kd [7] was 0.67 µM, the dH [7] was -6.8 kcal/mol and the stoichiometry N [7] was 1.07.
Work on “IRF5 (222-467) S430D (domain or fragment)” yielded a stoichiometry N [8] of 2.
